Measured values as given in PMC3305447, “A Peptidoglycan Fragment Triggers β-lactam Resistance in Bacillus licheniformis” (PLoS Pathogens, 2012).

Experiments:
[1] = molecular target: Staphylococcus aureus MecI repressor (MecI-His) (Staphylococcus aureus ATCC 43300) (UniProt P68261); experiment: native gel or EMSA
[2] = molecular target: Staphylococcus aureus MecI repressor (MecI-His) (Staphylococcus aureus ATCC 43300) (UniProt P68261)
[3] = molecular target: T1, MecI (Staphylococcus aureus, UniProt P68261); experiment: agarose-gel EMSA, dissociation of repressor-operator DNA complex; type: binding
T1 construct: full-length with C-terminal His6 (pET22b), recombinant, purified; homodimer; 15N-labelled for NMR
Target sequence in this assay (P68261 1-122): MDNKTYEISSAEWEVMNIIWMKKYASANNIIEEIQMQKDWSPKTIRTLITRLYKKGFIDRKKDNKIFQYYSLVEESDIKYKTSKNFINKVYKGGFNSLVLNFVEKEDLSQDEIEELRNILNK

[4] = molecular target: T1, MecI; experiment: NMR titration, 1H-15N SOFAST-HMQC chemical shifts; type: binding
[5] = molecular target: Bacillus licheniformis 749/I BlaI repressor (BlaI-His) (Bacillus licheniformis 749/I) (UniProt P06555)
Chain of Bacillus licheniformis 749/I BlaI repressor (BlaI-His) (Bacillus licheniformis 749/I) (P06555 whole entry): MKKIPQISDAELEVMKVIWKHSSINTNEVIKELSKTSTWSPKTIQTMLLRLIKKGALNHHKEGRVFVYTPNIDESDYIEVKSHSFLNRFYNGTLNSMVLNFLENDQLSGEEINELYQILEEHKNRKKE

Chain of Staphylococcus aureus MecI repressor (MecI-His) (Staphylococcus aureus ATCC 43300) (P68261 whole entry): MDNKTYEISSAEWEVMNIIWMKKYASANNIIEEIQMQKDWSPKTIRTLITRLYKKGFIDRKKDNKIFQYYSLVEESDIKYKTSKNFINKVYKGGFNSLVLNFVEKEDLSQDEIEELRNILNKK

With γ-D-Glu-L-Lys dipeptide the Kd [1] was 2000 µM and the concentration of dipeptide allowing the displacement of 50% of bound MecI from its nucleic operator (agarose gel EMSA titration, 10 to 50 nmol dipeptide in 20 µl) [2] was 2 mM.
For NCCCC[C@H](NC(=O)CC[C@@H](N)C(=O)O)C(=O)O [dipeptide 2, γ-D-Glu-L-Lys], the IC50 [3] was roughly 2000 µM and the Kd [4] was 8000 ± 2000 µM.
Compound γ-D-Glu-m-A2pm dipeptide has a concentration of dipeptide allowing the displacement of 50% of bound BlaI from its nucleic operator (agarose gel EMSA titration, 10 to 50 nmol dipeptide in 20 µl) [5] of 2 mM.
